In the DeepSol protein solubility set:

Experiment: soluble on expression in E. coli; label from the status in PepcDB or PDB records

Sequence | soluble on expression in E. coli
MGSSHHHHHHSSGLVPRGSHMSQDVPGNLLDEIRILRSPKGYLYAGLPKFRALFGRDSIISSIQLIDLFPDIAQNTVIYLKDLQGRKLDYSIGEYPGKILHEYYDDEKIFLDRKRSIPWLNSRINYFSVDSTPLFILLIKNLFLRNLIDIEQFKDSIMMAMQFLIAYSSSDGLITYDKALLGAGLMSQSWRDGVGDIMDRLKSPVATVGVQGYFYESADFVLNLFPDSLIEESLPDLKDFYSKMREILENKFWLEETGYYGLAVDGDGVIEQAATSDPGHLIGSGILTRSRERDVIDRLFESDLLTDYGIRTLSAKDPRFDPKAYQRGSIWPQDNWIIADGIKRRGYLKEYRELRERLIAAYEYYGRMPEYFGVDRYGKIMDLSKLRIKPCYPQAWSTGAIINFVTFK | soluble
MPIGNLGHNPNVNNSIPPAPPLPSQTDGAGGRGQLINSTGPLGSRALFTPVRNSMADSGDNRASDVPGLPVNPMRLAASEITLNDGFEVLHDHGPLDTLNRQIGSSVFRVETQEDGKHIAVGQRNGVETSVVLSDQEYARLQSIDPEGKDKFVFTGGRGGAGHAMVTVASDITEARQRILELLEPKGTGESKGAGESKGVGELRESNSGAENTTETQTSTSTSSLRSDPKLWLALGTVATGLIGLAATGIVQALALTPEPDSPTTTDPDAAASATETATRDQLTKEAFQNPDNQKVNIDELGNAIPSGVLKDDVVANIEEQAKAAGEEAKQQAIENNAQAQKKYDEQQAKRQEELKVSSGAGYGLSGALILGGGIGVAVTAALHRKNQPVEQTTTTTTTTTTTSARTVENKPANNTPAQGNVDTPGSEDTMESRRSSMASTSSTFFDTSSIGTVQNPYADVKTSLHDSQVPTSNSNTSVQNMGNTDSVVYSTIQHPPRDTTDNGARLLGNPSAGIQSTYARLALSGGLRHDMGGLTGGSNSAVNTSNNPPAPGSHRFV | not soluble
MTLILKRVQLLKDKPRREAIDRFLRQHQLSLEADCEMAIIAEYQQRLVGCGAIAGNVLKCIAIDPSLQGEGLSLKLLTELLTLAYELGRSELFLFTKPCNAALFSGAGFWPIAQAGDRAVLMENSRERLTRYCRQLAMYRQPGRKIGAIVMNANPFTLGHRWLVEQAASQCDWLHLFVVKEDASCFSYHDRFKLIEQGITGIDKVTLHPGSAYLISRATFPGYFLKEQGVVDDCHSQIDLQLFRERLAPALQITHRFVGTEPLCPLTRNYNQRMKSLLEAPGDAPPIEVVELARIEKNGGPVSASRVRELYRQRNWQAVAALVPPGTLSFLMQLAESEHQTA | not soluble
MGHHHHHHSHDGAEPGRVDTFWYKFLKREPGGELSWEGNGPHHDRCCTYNENNLVDGVYCLPIGHWIEATGHTNEMKHTTDFYFNIAGHQAMHYSRILPNIWLGSCPRQVEHVTIKLKHELGITAVMNFQTEWDIVQNSSGCNRYPEPMTPDTMIKLYREEGLAYIWMPTPDMSTEGRVQMLPQAVCLLHALLEKGHIVYVHCNAGVGRSTAAVCGWLQYVMGWNLRKVQYFLMAKRPAVYIDEEALARAQEDFFQKFGKVRSSVCSL | not soluble
MGSDKIHHHHHHVQHDQAPEVYSDLIQMVWALFTPSTVNFFSKGLCANAPFIMEMVDFEALKTVEEDVYLNAYNLTDHKMAIFGKDILDYEHFGATLAYPFIYPPAKVDGKLYLEGAAEDAFNFQGLLEHDEGIRTVVVFDAFGNEGYIQDPPNLWQAWGQNLILPLISLTRHDLAFFEHMLDDWNESHPARQDVELIKVTFPIPPEWLPTALDWSRSNLERMFELGYETGKKFVAEKGVRLGATLPPKPTPAKGRGGAAKKDDDAMFGGASIG | not soluble
MARTAAALHILVKHKEQADDILAQLKKGAKFHVLAKKYSTCPSGKKGGDLGEFRQGQMVPAFDKACFQGEVLTPQLVKTKFGWHVVKVLYRT | not soluble
MGSSHHHHHHSSGRENLYFQGMSVVFGVDIVGGSVHGKIKPKYAVVVLENGNEFEKIVSRSKLFRMVKKEKPDIIAVDNIYEVFKDKKDLIFFLKNAPSKTKLVQVTDRENSLPSLSKRFGLNINIRNPVDEARACAYLASFGMGSEISVFTDKTKITVSRNRSLGKGGWRQKKYGRKIHNAVREVYKEIRDRIVEAGFEFVEEVRKGYGGISRGVILVSAPRDRVPINSFKTRDVQVAVEAVEKEKIEFIPLRRTLRYLIVGIDPGATTAIAALDLRGELVDMKSRKGWSPAEVIEFISSLGKPVVVSTDKSSPPEFVSKIRASFNAVLYTPKEDMSVEKKRILTSKYSTSNDHERDALAAAIDAFNSYKSKLINVEKRLPAGIDSDRIKAEIIRGTPLKEVLSVTREESREEKVQAETVSREEILKRDRVIERLKEENRILSRKIKEMKDEIEKLRARVASISREEHEKIRKDTYVQNLEREIFDLRKKLKEKDEEIEQLKERIALLRKMKMLEFQGWKEVKVLRKFTKEEIERAEREMGISEGDIILIVDSSGGSASLAEMLCEKKVRAIIYGSEMSHLAAETFEKYNIPRISIDEVEIMMGDDIAVVNAEEFERVYAEKLEETKRRKIDFLEKLVEDYRRRRVV | soluble
MGSDKIHHHHHHMRYTYRHIGILTISLIVASCSFSQKQADNNHDKDMNPNVKIVVLDPGHFHASLLQKNPLASVNDTIRVYAPEGAEVKQYLNDINSYNQRAENPTSWKEEIYIGGDYLSRMLSDRQGDVVVLAGNNQKKTNYILEAIKAGYNVLSDKPLAINKKDFDLLIQAYQLAKERKLLLYDLMTERYDILNIIEKALLNNPDLFGELQKGSLNDPSVSMESVHHFFKNVSGKPLIRPVWYYDTEQQGEGIADVTTHLIDLVNWQCFPNETIRYQSDVEVLKARHWPTRITLPEFSQSTQADTFPAFLNKYINNNVLEVLANGSLNYTVKGIHIGMKVIWNYTPPSDGGDTFTSLKKGSKATLKTIQDKESGFVKQLYIQRAADSDHSEFESQLQKAIKQLQATYPFLSVKKMNEGLYLIDIPQADRLGHEAHFSKVAEAFLGYLHDKNMPEWENENTISKYYITTTAVELAKKEK | not soluble
MSLALELRQQLKLSQQLVMTPQLQQAIRLLQLSRLELVETVQQELLENPFLEEGMDEGAASSASEASSRKDESAPEAYDRELSRNADWEDYLGEFASSSRQAQVRETELPEEMTAFEARYSARPSLEGHLMWQLRLSRLTEDQKGIGETIIGNIGSSGYLQASVEDIAEMCGADASEVIPVLHAVQRFDPVGVASRTPQECLLIQIEMLGYDRDRVLVELVRDHLEDLETRRYKPLLRKFKLDMDDLKEYLDIIQSLDPMPGSSFGGSDPMFVSPDVFVYKYDDEFVIVLNDDGLPHLQLSSLYDQSLAGVTGKDKDFVQEKVRSASWLIKSLYQRQRTLYKVVESIIKYQRGFFEDGVTRLRPLILKDIADDISMHESTVSRITTNKFVATPHGVFELKFFFNSALELDDGSQVGSESVKALIKKLIGEENPKEPLSDERIGEILKEQLQVNIARRTVAKYRTAMNIPSSSKRKEVFEGHHHHHH | soluble
MGSDKIHHHHHHQSGPLRLEITEGVIEPLPFALPTFLAVGGAEDAAADVSRVIAADLRGTGLFRQIPPDAYISQITNFGAPVAYPDWQAINAQALITGQVEARADGQLVVRFRLFDVFSQAPLGEGLQFVGPADSWRRMAHTVADQVYSRITGEGGYFDTRVAFIAEEGPKNARLKRLAIMDYDGANVQFLTDSRSIVLAPRFSPQGDRILYTSYESGFPQVYIMDVATVQRRPLEAIPAETMTFSPRFSPSGQSVVFSLVDGSNTDIYSLDLATGTRRQLTQAPSIETAPSFSPDGSQIVFESDRSGNQQIYIMPADGGEARRVSAGTGRYGTPVWSPRGDYIAFTKQENGRFHIGVMRTDGSDERLLTSSFLDEGPTWAPNGRVIMFTRETPGDDGAPAVYSVDISGRNLQRVATPGMASDPAWSPLQS | not soluble
MRGSHHHHHHTDPALRATIWVDADACPNVIKEILYRAAERMQMPLVLVANQSLRVPPSRFIRTLRVAAGFDVADNEIVRQCEAGDLVITADIPLAAEAIEKGAAALNPRGERYTPATIRERLTMRDFMDTLRASGIQTGGPDSLSQRDRQAFAAELEKWWLEVQRSRGGLCGR | soluble
